For this assay, the target named is SARS-CoV-2 (2019-nCoV) Spike RBD-His Recombinant Protein (SARS-CoV-2, UniProt P0DTC2 319-541). As to the kind of experiment: ELISA. A general note: ELISA stands for enzyme-linked immunosorbent assay.

B1: B-38 (antibody, V domains shown)
VH: EVQLVESGGGLVQPGGSLRLSCAASGFIVSSNYMSWVRQAPGKGLEWVSVIYSGGSTYYADSVKGRFTISRHNSKNTLYLQMNSLRAEDTAVYYCAREAYGMDVWGQGTTVTVSS
VL: DIVMTQSPSFLSASVGDRVTITCRASQGISSYLAWYQQKPGKAPKLLIYAASTLQSGVPSRFSGSGSGTEFTLTISSLQPEDFATYYCQQLNSYPPYTFGQGTKLEIK
Consider B1, for which the EC50 (usually the concentration that produces a half-maximal response) stood at 1.5 mg/L.
